Test results as given in PMC9621051 (mAbs, 2022).

Target: the molecule itself
Experiment: native MS

B1: phospholipase D3 (PLD3) (enzyme)
chain: MKPKLMYQELKVPVEEPAGELPVNEIEAWKAAEKKARWVLLVLILAVVGFGALMTQLFLWEYGDLHLFGPNQRPAPCYDPCEAVLVESIPEGLEFPNATTSNPSTSQAWLGLLAGAHSSLDIASFYWTLTNNDTHTQEPSAQQGEEILQQLQALAPRGVKVRIAVSKPNGPLADLQSLLQSGAQVRMVDMQKLTHGVLHTKFWVVDQTHFYLGSANMDWRSLTQVKELGVVMYNCSCLARDLTKIFEAYWFLGQAGSSIPSTWPRPFDTRYNQETPMEICLNGTPALAYLASAPPPLCPSGRTPDLKALLSVVDSARSFIYIAVMNYLPTMEFSHPRRFWPAIDDGLRRAAYERGVKVRLLVSCWGHSEPSMRSFLLSLAALRDNHTHSDIQVKLFVVPADEAQARIPYARVNHNKYMVTERAVYIGTSNWSGSYFTETAGTSLLVTQNGHDGLRSQLEDVFLRDWNSLYSHNLDTAADSVGNACRLL
In the case of B1, the “stoichiometry N” value is reported as 2.
